Data from patent publication US5985836A, “Alpha-1 proteinase inhibitor binding peptides” (Bayer Corporation, priority 1998, dated 1999).
Ends that are not written are not given here.

Experiments:
haptoglobin (Hpt) = assay: Purification from Effluent II+III, haptoglobin mass balance; format: binding, human; details: 1 ml Eff. II+III, 4° C.
Experimental: Sequences 1-11 and 15 were assayed with Effluent II+III (Eff. II+III). Eff. II+III is a process intermediate in the Cohn plasma fractionation process. The feed stream contains 20% (by volume) ethanol, 20-25 mg/ml hSA and approximately 1 mg/ml AlPI. The stream also contains other proteins including anti-thrombin III (AT3), immunoglobin G (IgG), immunoglobin A (IgA), apolipoprotein alpha-1 (Apo A-1), transferrin (Trf), haptoglobin (Hpt), and alpha-1 acid glycoprotein (AAG) at concentrations ranging from 0.1-1 mg/ml.
The columns were assayed using the same technique as the hSA+AlPI experiments, allowing for a 10 minute residence time followed by a constant flow rate of 865 μl/min with step elutions of 1M NaCl, 3M NaCl, and 2% acetic acid. All experiments were conducted at 4° C. The mass balances for the injection of 1 ml Eff. […] The AlPI was enriched from 3% of the total protein in the feed to upwards of 50% in the acid eluate.

A1PI [1] = target: T1, A1PI (Homo sapiens, UniProt P01009); assay: Purification of A1PI from Effluent II+III on peptide column, A1PI mass balance; format: binding; details: A1PI, 1 ml Eff. II+III, 4° C.
T1 construct: Human plasma is currently the only approved source of therapeutic AlPI
Outline: (§1)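 Peptide-ligand columns were loaded with 1 ml Cohn Effluent II+III (20% v/v ethanol, 20-25 mg/ml hSA, ~1 mg/ml A1PI, other plasma proteins at 0.1-1 mg/ml) using a 10 min residence time at 4° C. Step elutions at 865 μl/min used 1M NaCl, 3M NaCl, then 2% acetic acid, and protein mass balances were tracked across fractions.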

A1PI [2] = target: T1, A1PI; assay: A1PI purification from 5 mg hSA + 1 mg A1PI on peptide column, A1PI mass balance; format: binding; details: A1PI, 5 mg hSA + 1 mg A1PI; for Percent Eluted by Fraction, 1M NaCl / Percent Eluted by Fraction, 2% Ac. Acid / Percent Eluted by Fraction, 3M NaCl / Percent Eluted by Fraction, Flow: relative to total eluted
Outline: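 Peptides on A-Totda-Toyopearl resin (0.1 mmole/g) in 0.4×5 cm columns; 5 mg hSA + 1 mg A1PI loaded at 4 °C or 20 °C with 10 min residence (17 μl/min). Steps of 1M and 3M NaCl, then 2% acetic acid; fractions quantified by immunonephelometry for mass balance.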

Immunoglobulin G (IgG) = assay: Purification from Effluent II+III, IgG mass balance; format: binding, human; details: 1 ml Eff. II+III, 4° C.
Outline: as §1

[3] = target: T2, apolipoprotein alpha-1 (Apo A-1) (Homo sapiens, UniProt P02647); assay: Purification from Effluent II+III, Apo A-1 mass balance; format: binding; details: 1 ml Eff. II+III, 4° C.
T2 construct: Eff; II+III is a process intermediate in the Cohn plasma fractionation process; tissue Bayer Corporation (Clayton, N.C.); host or cells: plasma fraction: Cohn Effluent II+III
Outline: as §1

A1PI [4] = target: T1, A1PI; assay: Capture and elution of active A1PI with 2M urea buffer (elastase inhibition activity assay and immunonephelometry); format: binding; details: 4° C.
Immunoglobulin A (IgA) = assay: Purification from Effluent II+III, IgA mass balance; format: binding, human; details: 1 ml Eff. II+III, 4° C.
Outline: as §1

A1PI [5] = target: T1, A1PI; assay: A1PI binding on peptide-resin column, injection of 1 mg A1PI in equilibration buffer; details: 1 mg A1PI in equilibration buffer
Outline: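 Peptides synthesized on A-Totda-Toyopearl chelate resin (0.1 mmole/g) packed in 0.4×5 cm columns; 1 mg A1PI injected in equilibration buffer at 4 °C or 20 °C, 865 or 523 μl/min. Flowthrough, 1M/3M NaCl washes and 2% acetic acid eluate quantified by A280 or immunonephelometry as percent of total eluted.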

[6] = * as in Tables 4, 5 (below detection limit)
[7] = 20° C., * Below detection limit

T2 sequence (P02647 19-267): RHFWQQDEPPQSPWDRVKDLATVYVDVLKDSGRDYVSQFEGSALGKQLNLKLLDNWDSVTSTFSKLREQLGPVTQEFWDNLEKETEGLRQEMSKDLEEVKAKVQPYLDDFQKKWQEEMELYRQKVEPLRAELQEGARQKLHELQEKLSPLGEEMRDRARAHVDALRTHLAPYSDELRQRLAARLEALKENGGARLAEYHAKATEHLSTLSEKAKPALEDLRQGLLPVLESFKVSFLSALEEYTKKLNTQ
T1 sequence (P01009 25-418): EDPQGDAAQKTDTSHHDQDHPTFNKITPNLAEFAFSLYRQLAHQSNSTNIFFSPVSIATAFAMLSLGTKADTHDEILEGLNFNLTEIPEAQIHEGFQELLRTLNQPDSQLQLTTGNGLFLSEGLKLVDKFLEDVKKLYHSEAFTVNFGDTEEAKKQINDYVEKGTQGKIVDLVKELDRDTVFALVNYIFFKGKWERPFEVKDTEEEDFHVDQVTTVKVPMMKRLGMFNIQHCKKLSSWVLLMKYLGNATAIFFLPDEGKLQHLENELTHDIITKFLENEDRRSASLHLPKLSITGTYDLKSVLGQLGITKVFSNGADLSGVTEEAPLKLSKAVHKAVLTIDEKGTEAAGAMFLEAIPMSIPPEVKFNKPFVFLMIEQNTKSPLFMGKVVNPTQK

Percent Eluted by Fraction, 1M NaCl (A1PI [1]): 16% | Percent Eluted by Fraction, 2% Acetic Acid (A1PI [1]): 25% | Percent Eluted by Fraction, 3M NaCl (A1PI [1]): 0% | Percent Eluted by Fraction, Flow (A1PI [1]): 59% | Mass Protein per Eluate Fraction, 1M NaCl (A1PI [1]; [6]): 0.20 mg | Mass Protein per Eluate Fraction, 2% Acetic Acid (A1PI [1]; [6]): 0.30 mg | Mass Protein per Eluate Fraction, Flow (A1PI [1]; [6]): 0.71 mg | Mass Protein per Eluate Fraction, 1M NaCl (A1PI [2]; 4° C., * Below detection limit): 0.40 mg | Mass Protein per Eluate Fraction, 2% Ac. Acid (A1PI [2]; 4° C., * Below detection limit): 0.24 mg | Percent Eluted by Fraction, 1M NaCl (A1PI [2]; 4° C.): 62% | Percent Eluted by Fraction, 2% Ac. Acid (A1PI [2]; 4° C.): 38% | Percent Eluted by Fraction, 3M NaCl (A1PI [2]; 4° C.): 0% | Percent Eluted by Fraction, Flow (A1PI [2]; 4° C.): 0% | Mass Protein per Eluate Fraction, 1M NaCl (A1PI [2]; [7]): 0.15 mg | Mass Protein per Eluate Fraction, 2% Ac. Acid (A1PI [2]; [7]): 0.37 mg | Mass Protein per Eluate Fraction, Flow (A1PI [2]; [7]): 0.34 mg | Percent Eluted by Fraction, 1M NaCl (A1PI [2]; 20° C.): 18% | Percent Eluted by Fraction, 2% Ac. Acid (A1PI [2]; 20° C.): 43% | Percent Eluted by Fraction, 3M NaCl (A1PI [2]; 20° C.): 0% | Percent Eluted by Fraction, Flow (A1PI [2]; 20° C.): 39% | Percent Eluted by Fraction, 1M NaCl [3]: 0% | Percent Eluted by Fraction, 2% Acetic Acid [3]: 51% | Percent Eluted by Fraction, 3M NaCl [3]: 0% | Percent Eluted by Fraction, Flow [3]: 49% | Mass Protein per Eluate Fraction, 2% Acetic Acid [3, 6]: 0.30 mg | Mass Protein per Eluate Fraction, Flow [3, 6]: 0.28 mg | Mass A1PI in Urea Eluate (mg), Activity (A1PI [4]; 1 mg A1PI, eluted with 2M urea, pH 6, elastase inhibition activity assay): 0.75 mg | Mass A1PI in Urea Eluate (mg), Nephelometry (A1PI [4]; 1 mg A1PI, eluted with 2M urea, pH 6, immunonephelometry): 0.85 mg | Specific Activity (A1PI [4]; mass of A1PI by activity assay relative to immunonephelometry, urea eluate): 0.88 mg/mg | Percent A1PI Eluted by Fraction Based on Absorbance at 280 nm, 1M NaCl (A1PI [5]; 4° C.): 74% | Percent A1PI Eluted by Fraction Based on Absorbance at 280 nm, 2% Acetic Acid (A1PI [5]; 4° C.): 26% | Percent A1PI Eluted by Fraction Based on Absorbance at 280 nm, Flowthrough (A1PI [5]; 4° C.): 0% | Percent A1PI Eluted by Fraction, 1M NaCl (A1PI [5]; 20° C.): 64% | Percent A1PI Eluted by Fraction, 2% Acetic Acid (A1PI [5]; 20° C.): 36% | Percent A1PI Eluted by Fraction, Flowthrough (A1PI [5]; 20° C.): 0%
Substance: LIVHRW
Percent Eluted by Fraction, 1M NaCl (haptoglobin (Hpt)): 40% | Percent Eluted by Fraction, 2% Acetic Acid (haptoglobin (Hpt)): 0% | Percent Eluted by Fraction, 3M NaCl (haptoglobin (Hpt)): 0% | Percent Eluted by Fraction, Flow (haptoglobin (Hpt)): 60% | Mass Protein per Eluate Fraction, 1M NaCl (haptoglobin (Hpt); [6]): 0.29 mg | Mass Protein per Eluate Fraction, Flow (haptoglobin (Hpt); [6]): 0.43 mg | Percent Eluted by Fraction, 1M NaCl (Immunoglobulin G (IgG)): 0% | Percent Eluted by Fraction, 2% Acetic Acid (Immunoglobulin G (IgG)): 0% | Percent Eluted by Fraction, 3M NaCl (Immunoglobulin G (IgG)): 0% | Percent Eluted by Fraction, Flow (Immunoglobulin G (IgG)): 100% | Mass Protein per Eluate Fraction, Flow (Immunoglobulin G (IgG); [6]): 0.31 mg | Percent Eluted by Fraction, 1M NaCl (Immunoglobulin A (IgA)): 43% | Percent Eluted by Fraction, 2% Acetic Acid (Immunoglobulin A (IgA)): 20% | Percent Eluted by Fraction, 3M NaCl (Immunoglobulin A (IgA)): 0% | Percent Eluted by Fraction, Flow (Immunoglobulin A (IgA)): 37% | Mass Protein per Eluate Fraction, 1M NaCl (Immunoglobulin A (IgA); [6]): 0.18 mg | Mass Protein per Eluate Fraction, 2% Acetic Acid (Immunoglobulin A (IgA); [6]): 0.08 mg | Mass Protein per Eluate Fraction, Flow (Immunoglobulin A (IgA); [6]): 0.15 mg
